Data published in the nanobody polyreactivity screen of Harvey et al. (2022).

Assay: yeast display, Sf9 membrane polyspecificity reagent, FACS + sequencing; frameworks hold sequencing errors
Procedure, shortened: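 Sorting gates, low and high (top ~1%), were placed on anti-HA fluorescence to track expression and on streptavidin fluorescence to track reagent binding. A clone's polyreactivity label is taken from the gate it came out of. The reagent was 10% biotinylated, detergent-solubilized Sf9 membrane, applied for 1 hour at 4 °C to galactose-induced yeast display cells.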

Sequence | polyreactivity (PSR sort gate)
QVQLVESAGGLVQEGGSLRLSCAASGRIFARYAMGWSRQAPGKERELVAAITDSGDNTYYADSVKGRFTISRDNAKNTVYLQMNSLKPEDTAVYYCKAYFLVHYRRLRPYDYWGHGTQVTVSS | low polyreactivity
QVQLVESAGRLVKAGGSLRLSCDASGSIFKGNAMGWYRQEPGKERELVAAISRTGGSTYYADSVKGRFTISRDNAKNTVYLQMNSLKPEDTAVYYCAAYSASTYDSWGQGTQVTVSS | high polyreactivity
QVQLVESARGLVQAGGCLRLSCAASGSTFHQNAMGWSRQAPGKERELVAAITSGGSTYYADSVKGRFTISRDNAKNTGYLQMNSLKPEDTAVYYCNALTHVRSKRWRFRSEHDYWGQGTQVTVSS | high polyreactivity
QVQLVESAVGLVQAGGRLRLSCAASGRIFVFNAMGWYMQAPGKERELVAAITASSTRTYYADSVKGRFTISRDNAKNTVYLQMNSLNPEDPAVYYCARDIRQYILYGRVDYWGQGTQVTVSS | low polyreactivity
QVQLVESAVGLVQAGGSLRLSCAASGRIFYFNAMGWYRQAPGKERELVAAISSSGTTYYADSVKGRFTISRDNAKNTVYLQMNSLKPEDTAVYYCAAGYYGHDPRNRYRYNYWGQGTQVTVSS | high polyreactivity
QVQLVESAVGLVQAGGSLRLSCDASGRSYYTYAMGWYRQAPGKERELVATITDGGSTYYAESVKGRFTISRDNAKNTVYLQMNSLKPEDTAVYYCAADAYQWYDWGQGTQVTVSS | low polyreactivity
QVQLVESCGALVQASGTLRLSCAASGSIFGYNTMRWYRQAPGKERELVAAIYYSGGRTYYADSVKGRFTISRDNAKNTVYLQMNSLKPEDTAVYNCAARKGYRYYYRGQGTQVTVSS | high polyreactivity
QVQLVESCGCLVQAVGSLRLSCAASRFIFRLYAMVWYRQAPGKERELVAAISSGTSTYYADSVKVRFTISRDNAKNTVYLQMNSLKPEETEVYYCAAVPRVNWSRYVYFWYDYWGEGTQVTVSS | high polyreactivity
QVQLVESCGGLDQAGGSLRLTCAASGINFWYNTMGWYRQAPRKERELVAAITYGGGSTYYADSVKGRFTISRDNAKNSVYLQMYSMKPVDTAVYYCAVRNWHLIKYLHGYSRYGYWGQGTQVTVSS | low polyreactivity
QVQLVESCGGLVQAGGSHRLSCAASGFTFTRNALGWYRQAPGKERELVAAISIRGSSTYYADSVKGRFTISRDNAKNTVYLQMNILKQEDTAVYYCSAPTFSLHGTYGYWGQGTQVTVSS | high polyreactivity
QVQLVESCGGLVQAGGSLRISCAASGRIFRPYAMGWYRQAPGPEREFVAAITSGSNTYYADSVKWRFTISRDNAKNTVYLQMNSLKPEDTAFYYCAAVQRKRAPAETAYGYWGQGPQVTVSS | high polyreactivity
QVQLVESCGGLVQAGGSLRLSCAASGFIFLPYVMGWYRQAPGKERELVAAISGGGGITYYADSVKGRFTISRDNAKNTVYLQMNSLKPEDTAVYYCAAERPVAPYDYWGQGTQVTVSS | low polyreactivity
QVQLVESCGGLVQAGGSLRLSCAASGFNIYRNAMGWYRKAPGKERELVAAISTSVGSTHYADSVKGRFTISRDNAMNTVYLQMYSLKPEDTAVYYCAKRRSIRDEFGYWGQGTQVTVSS | high polyreactivity
QVQLVESCGGLVQAGGSLRLSCAASGIIFWWYTMGWYRQAPGKERELVAAISRGGNTNYADSVKGRFTISRDNAKNTVYLQMNSLKTEDTAFYYCAADRHYRFWQYDYWGQGTQVTVSS | high polyreactivity
QVQLVESCGGLVQAGGSLRLSCAASGRIFKYNPMGWYRQAPGQERELVASITASGGRTYYADSVKGRFTISRDIAKNTVYLQMNSLKTEDTAVYYCAAGRPFSKYGYWRQGTQVTVSS | high polyreactivity
QVQLVESCGGLVQAGGSLRLSCAASGRISQNAMGWYRQPPVKERELVAAITFSGGSTYYADSVKGRFTISRDNAKNTVYLQMNSLKPEDTAVYYCNGDYGDWPTAGDYWGQGTQVTVSS | low polyreactivity
QVQLVESCGGLVQAGGSLRLSCAASGRTFTDYVMGWYRQAPGKERELVAGIRRSGGTYYADSVKGRFTISRDNAKNTVYLQMNSLKPEDTAVYYCAAPVQTGPDPEYDYWGQGTQVTVSS | low polyreactivity
QVQLVESCGGLVQAGGSLRLSCAASGSTFGYYAMGWYRQAPGKETELVAAISSRGGSTYYADSVKGRFTISRDNAKNTVYLQMNSLKPEDTADYYCAARGLFFRNRYGYWGQGTQVTVSS | high polyreactivity
QVQLVESCGGLVQAGGSLRLSCAASGSTFRFYAMGWYRQAPGKERELVAAINGSGGSTYYADSVKGRFTISRDNAKNTVYLQMNSLKPEDTAVYYCAVLYRYGYDYWGQGTQVTVSW | low polyreactivity
QVQLVESCGGLVQAGGSLRLSCAASGSTFRYYPMGWYRPATGKETELVASISIGGGSTYYADSVKGRFTISRDHAKNTVYLQMNSLKPEDTAGYYCAAERTIRAARPFFRTFDYWGQGTQVTVSS | low polyreactivity
QVQLVESCGGLVQAGGSLRLSCAASGSTFSSYAMGWYSQAPGKERELVAAISSSGGTSTYADSVKGPFTISRDNAKNTVYLQMNSLKPEDTAVYYCNTDRFRRLYDYWGQGTQVTVSS | high polyreactivity

Sequence | polyreactivity (PSR sort gate)
QVQLVESCGGLVQAGGSLRLSCAASGSTFYRYAMGWYRQAPGKERELVARITRTGGITNYADSVKGRFTISRDNAKNTVYLQMNSLKPEDTAVYDCAKTNIRDHYYWGQGTQVTVSS | high polyreactivity
QVQLVESCGGLVQAGGSLRLSCAASGYIFVYNAMGWYRQAHGKERELVAAISTTGGRTYYADSVKGRFTISRDNAKNTVYLQMNSLKPEDTAVYYCAARAYYARSLFGYWGQGTQVNVSS | high polyreactivity
QVQLVESCGGLVQAGGSLRLSCAPSGRTIVYKAMGWYRQAPGKERELVAAISWSGGSPYYADSVKGRFTISRDNAKNTVNLQMNSLKPDDSAVYYCATSSYYYTIWMYYWGQGTQVTVSS | high polyreactivity
QVQLVESCGGLVQAGGSLRLSCASSGFIFFENAMGCYIQAPCKERELVAVISSSGTSTYYADSVKGRFTISRDNAKNTVYLQMTSLKPEDTAVYYCAKDYYRSYGREDYWGQGTQVTVSS | low polyreactivity
QVQLVESCGGLVQAGGSLRLSCASSGLTFSRYAMGWSRQAPGKERELVAVISRSGGSTYYADSVKGRFTISRDNAKTTVYLHMNSLKPEDTAVYYCAVRAYIKMDYWGQGTQVTVSS | high polyreactivity
QVQLVESCGGLVQAGGSLRLSCSATGSTSVANAMGWYRQAPGKEREIVAAITGYGVSTYYADSVKGRFTISRDNAKNTVFLQMNSLKPEDTAVYYCATRGVSTSRPGYYWGQGTQVSVSS | high polyreactivity
QVQLVESCGGLVQAGGSLRLSCSSSGRIFRGNAMGWYRQAPGKERELVAAILTGVTTYYADSVKGRFTISRDNAKNTVYLQTNSLKPEDTAVYYCAAERPSRRSGYEYWGQGTQVTVSS | low polyreactivity
QVQLVESCGGLVQAGGSLRLSFAASGSILVRYAMGWYRQAPGKERELVAAITSGGSTYADSVKGRFTISRDNAKNTVYLQMNSLKPEDTAVYYCAADAYGYGGDSWGQGTLVTVSS | low polyreactivity
QVQLVESCGGLVQAGVSLRLSCAASVFKYAMGRYRQAPGKKRELVAAISSGGITSYADSVKGRFTISRDNAKNTVYLQMNSLKPEDTAVYYCNARLRHSQYAYYYWGQGTQVTLSS | high polyreactivity
QVQLVESCGGLVQEGGSLRLSCAASGFTFLRYAMGWYRQAPGKERELVAAISIPGGNTYYADSVKGRFTISRDNAKNTVYLQMNSLKPEDTAVYYCAARFGGGAARHGYWGQGTQVTVSS | high polyreactivity
QVQLVESEGGLVQAGGSLRLSFAASGSIFPYNAMGWYRQAPGKERELVAAISISGGSTYYADSVKGRFTISRDNAKNTVYLLMNSLKPEDTAVYYCAARQSLSSAFDYCGQGTQVTVSS | low polyreactivity
QVQLVESGAALVQAGGSLRLSCAASGFIIYDYMGWYRQAPGKERELVAVISYSGSSTYYADSVKGRFTISRDNAKNTDYLQMNSLKPEDTAVYYCAARNVNGWDYDYWGLGTQVTVSS | low polyreactivity
QVQLVESGAGIVQAGGSLRLSCAASGSTFGRYAMGLYTQAPGKERELVAAISASGGSTYYADSVKGRFTISRDNAKTTVYLQMNSLTPEDTAVYYCAKDRPQTRLWYYFIDDYDYRGQGTQVTVSS | high polyreactivity
QVQLVESGAGLFKAGGSLRLSCAASGRIFATNAMGWYRQAPGKERELVAAISSSGGSTYYADSVKGRFTISRDNAKNTVYLQMNSLKPEDTAVYDCAAAHSYYVHYYYWGQGTQGTVSS | high polyreactivity
QVQLVESGAGLVKAGGSLRLSCAASGRTLTGNDMGWYRQAPGKERELVAAITARGGSTYYADSVKGRFTISRDNAKNTVYLQMNSLKPEDTAVYYGATLPVRIRRDYWGQGTQVTVSS | high polyreactivity
QVQLVESGAGLVLAGGSLRLSCAASGRTFRLYAMGWYRQAPGKERELVAAISYSDGRTYYADSVKGRFTISRDNAKNTVYLQMNSLKPEDTAVYYCAAETLYVAGSYYWGQGTQVTVSS | high polyreactivity
QVQLVESGAGLVQAAGRLRLSCAASGNTFKVNVMGWYRPAPGKERQLVASITINDRSTYYADSVKGRFTISRDNAKNTVYLQMNSLKREDTEVYYCGGDLADFYPRFNYWGQGTQVSVSS | low polyreactivity
QVQLVESGAGLVQAGGILLLSSAASGRIFLFYSLGWSRQEPGKERELVAAISVRGGSTYYADSVKGRITISRDNAKNTVFLQMNSLKPEDTAVYYCNAPNYRSRFDYWGQGTQVTVSS | high polyreactivity
QVQLVESGAGLVQAGGSLRISCAASASIFAYYVMGRYREAPGKERELVAAITRSGSPYYADSVKGRFTISRDNAKNTVYLQMNSLKPEDTAVYYCAAPTDFLFWEFDYWGQGTQVTVSS | low polyreactivity
QVQLVESGAGLVQAGGSLRISCAASGRIFAQYAMGWYRQAPGKERELVAAITTTGRTYYADSVKGRFTISRDNAKNTVYLQMNSTKPEETAVYYCAVGYHAPKVSTSDPRYDYWGQGTQVTVSS | low polyreactivity
